Assay results as given in US20220064329A1 (Novo Nordisk, published 2022).

What was measured:
[1] = biological target: T1, recombinant human activated FVII (FVIIa) (human, UniProt P08709 61-212; P08709 213-466, ten glutamate residues of the Gla domain may be gamma-carboxylated); test: cell-based or functional assay
T1 sequence 1: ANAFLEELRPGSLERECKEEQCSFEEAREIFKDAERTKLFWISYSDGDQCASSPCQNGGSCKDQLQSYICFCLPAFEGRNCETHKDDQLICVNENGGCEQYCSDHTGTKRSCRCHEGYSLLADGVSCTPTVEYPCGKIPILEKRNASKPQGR
T1 sequence 2: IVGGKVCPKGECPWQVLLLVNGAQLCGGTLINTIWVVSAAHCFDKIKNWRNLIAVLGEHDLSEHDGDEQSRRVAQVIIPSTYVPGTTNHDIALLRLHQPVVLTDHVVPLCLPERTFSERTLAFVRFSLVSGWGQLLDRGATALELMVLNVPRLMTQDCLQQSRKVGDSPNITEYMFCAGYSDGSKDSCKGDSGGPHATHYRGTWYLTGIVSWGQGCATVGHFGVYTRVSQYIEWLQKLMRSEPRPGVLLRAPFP

[2] = biological target: T2, sTLT1 (SEQ ID No: 3 with six histidine residues added at the C-terminus) (human, UniProt Q86YW5 16-162); test: dissociation constant listed with the stimulatory activities; value of the anti-TLT-1 arm
T2 construct: Soluble TLT-1 used in SPR
T2 sequence: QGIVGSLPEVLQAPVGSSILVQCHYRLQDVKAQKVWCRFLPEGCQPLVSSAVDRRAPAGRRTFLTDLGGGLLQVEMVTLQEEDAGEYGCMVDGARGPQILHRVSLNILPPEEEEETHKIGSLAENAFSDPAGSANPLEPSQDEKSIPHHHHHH

[3] = biological target: T1, recombinant human activated FVII (FVIIa); test: dissociation constant listed with the stimulatory activities; method not given

B1: biAb0097 (bispecific antibody, human IgG4 S228P, kappa)
heavy 1: DVQLQESGPGLVEPSQSLSLTCTVTGYSITSDSAWSWIRQFPGNKLEWMGYIQYSGSTNYNPSLKSRISVTRDTSKNQFFLRLSSVTAEDTATYYCTRSVNYYGNSFAVGYWGQGTSVTVSSASTKGPSVFPLAPCSRSTSESTAALGCLVKDYFPEPVTVSWNSGALTSGVHTFPAVLQSSGLYSLSSVVTVPSSSLGTKTYTCNVDHKPSNTKVDKRVESKYGPPCPPCPAPEFLGGPSVFLFPPKPKDTLMISRTPEVTCVVVDVSQEDPEVQFNWYVDGVEVHNAKTKPREEQFNSTYRVVSVLTVLHQDWLNGKEYKCKVSNKGLPSSIEKTISKAKGQPREPQVYTLPPSQEEMTKNQVSLTCLVKGFYPSDIAVEWESNGQPENNYKTTPPVLDSDGSFLLYSKLTVDKSRWQEGNVFSCSVMHEALHNHYTQKSLSLSLGK
light 1: EIVLTQSPATLSLSPGERATLSCRASQGISDYLHWYQQKPGEAPRLLIKYTSQPATGIPARFSGSGSGTDFTLTISSLEPEDVGVYYCQSGHSFPLTFGAGTKLELKRTVAAPSVFIFPPSDEQLKSGTASVVCLLNNFYPREAKVQWKVDNALQSGNSQESVTEQDSKDSTYSLSSTLTLSKADYEKHKVYACEVTHQGLSSPVTKSFNRGEC
heavy 2: not shown
light 2: DIVMTQTPLSSPVTLGQPASISCRSSQSLVHRNGNTYFHWLQQRPGQPPRLLIYKVSNRFSGVPDRFSGSGAGTDFTLKISRVEAEDVGVYYCSQSTHVPYTFGQGTKLEIKRTVAAPSVFIFPPSDEQLKSGTASVVCLLNNFYPREAKVQWKVDNALQSGNSQESVTEQDSKDSTYSLSSTLTLSKADYEKHKVYACEVTHQGLSSPVTKSFNRGEC
notes: Duobody, constant domain type H (IgG4): anti-FVII(a) arm mAb0872, anti-TLT-1 arm mAb1047; also called mAb0872 x mAb1047
Stimulation (fold): FXa generated by FVIIa with lipidated TLT-1 and 100 nM biAb, relative to free FVIIa [1]: 17.4 fold
Kd [2]: 75 nM
Kd [3]: 2.2 nM

B2: biAb0012 (bispecific antibody, human IgG4 S228P, kappa)
heavy 1: DVQLQESGPGLVEPSQSLSLTCTVTGYSITSDSAWSWIRQFPGNKLEWMGYIQYSGSTNYNPSLKSRISVTRDTSKNQFFLRLSSVTAEDTATYYCTRSVNYYGNSFAVGYWGQGTSVTVSSASTKGPSVFPLAPCSRSTSESTAALGCLVKDYFPEPVTVSWNSGALTSGVHTFPAVLQSSGLYSLSSVVTVPSSSLGTKTYTCNVDHKPSNTKVDKRVESKYGPPCPPCPAPEFLGGPSVFLFPPKPKDTLMISRTPEVTCVVVDVSQEDPEVQFNWYVDGVEVHNAKTKPREEQFNSTYRVVSVLTVLHQDWLNGKEYKCKVSNKGLPSSIEKTISKAKGQPREPQVYTLPPSQEEMTKNQVSLTCLVKGFYPSDIAVEWESNGQPENNYKTTPPVLDSDGSFLLYSKLTVDKSRWQEGNVFSCSVMHEALHNHYTQKSLSLSLGK
light 1: EIVLTQSPATLSLSPGERATLSCRASQGISDYLHWYQQKPGEAPRLLIKYTSQPATGIPARFSGSGSGTDFTLTISSLEPEDVGVYYCQSGHSFPLTFGAGTKLELKRTVAAPSVFIFPPSDEQLKSGTASVVCLLNNFYPREAKVQWKVDNALQSGNSQESVTEQDSKDSTYSLSSTLTLSKADYEKHKVYACEVTHQGLSSPVTKSFNRGEC
heavy 2: not shown
light 2: DIVMTQTPLSSPVTLGQPASISCRSSQSLVHRQGNTYFHWLQQRPGQPPRLLIYKVSNRFSGVPDRFSGSGAGTDFTLKISRVEAEDVGVYYCSQSTHVPYTFGQGTKLEIKRTVAAPSVFIFPPSDEQLKSGTASVVCLLNNFYPREAKVQWKVDNALQSGNSQESVTEQDSKDSTYSLSSTLTLSKADYEKHKVYACEVTHQGLSSPVTKSFNRGEC
notes: Duobody, constant domain type H (IgG4): anti-FVII(a) arm mAb0872, anti-TLT-1 arm mAb1076; also called mAb0872 x mAb1076
Stimulation (fold): FXa generated by FVIIa with lipidated TLT-1 and 100 nM biAb, relative to free FVIIa [1]: 22.1 fold
Kd [2]: 2.9 nM
Kd [3]: 2.2 nM

B3: biAb0017 (bispecific antibody, human IgG4 S228P, kappa)
heavy 1: DVQLQESGPGLVEPSQSLSLTCTVTGYSITSDSAWSWIRQFPGNKLEWMGYIQYSGSTNYNPSLKSRISVTRDTSKNQFFLRLSSVTAEDTATYYCTRSVNYYGNSFAVGYWGQGTSVTVSSASTKGPSVFPLAPCSRSTSESTAALGCLVKDYFPEPVTVSWNSGALTSGVHTFPAVLQSSGLYSLSSVVTVPSSSLGTKTYTCNVDHKPSNTKVDKRVESKYGPPCPPCPAPEFLGGPSVFLFPPKPKDTLMISRTPEVTCVVVDVSQEDPEVQFNWYVDGVEVHNAKTKPREEQFNSTYRVVSVLTVLHQDWLNGKEYKCKVSNKGLPSSIEKTISKAKGQPREPQVYTLPPSQEEMTKNQVSLTCLVKGFYPSDIAVEWESNGQPENNYKTTPPVLDSDGSFLLYSKLTVDKSRWQEGNVFSCSVMHEALHNHYTQKSLSLSLGK
light 1: EIVLTQSPATLSLSPGERATLSCRASQGISDYLHWYQQKPGEAPRLLIKYTSQPATGIPARFSGSGSGTDFTLTISSLEPEDVGVYYCQSGHSFPLTFGAGTKLELKRTVAAPSVFIFPPSDEQLKSGTASVVCLLNNFYPREAKVQWKVDNALQSGNSQESVTEQDSKDSTYSLSSTLTLSKADYEKHKVYACEVTHQGLSSPVTKSFNRGEC
heavy 2: not shown
light 2: DIVMTQTPLSSPVTLGQPASISCRSSQSLVHRPGNTYFHWLQQRPGQPPRLLIYKVSNRFSGVPDRFSGSGAGTDFTLKISRVEAEDVGVYYCSQSTHVPYTFGQGTKLEIKRTVAAPSVFIFPPSDEQLKSGTASVVCLLNNFYPREAKVQWKVDNALQSGNSQESVTEQDSKDSTYSLSSTLTLSKADYEKHKVYACEVTHQGLSSPVTKSFNRGEC
notes: Duobody, constant domain type H (IgG4): anti-FVII(a) arm mAb0872, anti-TLT-1 arm mAb1038; also called mAb0872 x mAb1038
Stimulation (fold): FXa generated by FVIIa with lipidated TLT-1 and 100 nM biAb, relative to free FVIIa [1]: 13.6 fold
Kd [2]: 19 nM
Kd [3]: 2.2 nM

B4: biAb0092 (bispecific antibody, human IgG4 S228P, kappa)
heavy 1: DVQLQESGPGLVEPSQSLSLTCTVTGYSITSDSAWSWIRQFPGNKLEWMGYIQYSGSTNYNPSLKSRISVTRDTSKNQFFLRLSSVTAEDTATYYCTRSVNYYGNSFAVGYWGQGTSVTVSSASTKGPSVFPLAPCSRSTSESTAALGCLVKDYFPEPVTVSWNSGALTSGVHTFPAVLQSSGLYSLSSVVTVPSSSLGTKTYTCNVDHKPSNTKVDKRVESKYGPPCPPCPAPEFLGGPSVFLFPPKPKDTLMISRTPEVTCVVVDVSQEDPEVQFNWYVDGVEVHNAKTKPREEQFNSTYRVVSVLTVLHQDWLNGKEYKCKVSNKGLPSSIEKTISKAKGQPREPQVYTLPPSQEEMTKNQVSLTCLVKGFYPSDIAVEWESNGQPENNYKTTPPVLDSDGSFLLYSKLTVDKSRWQEGNVFSCSVMHEALHNHYTQKSLSLSLGK
light 1: EIVLTQSPATLSLSPGERATLSCRASQGISDYLHWYQQKPGEAPRLLIKYTSQPATGIPARFSGSGSGTDFTLTISSLEPEDVGVYYCQSGHSFPLTFGAGTKLELKRTVAAPSVFIFPPSDEQLKSGTASVVCLLNNFYPREAKVQWKVDNALQSGNSQESVTEQDSKDSTYSLSSTLTLSKADYEKHKVYACEVTHQGLSSPVTKSFNRGEC
heavy 2: not shown
light 2: DIVMTQTPLSSPVTLGQPASISCRSSQSLVHRNGNTYFHWLQQRPGQPPRLLIYKVSNRFSGVPDRFSGSGAGTDFTLKISRVEAEDVGVYYCSQSTHVPYTFGQGTKLEIKRTVAAPSVFIFPPSDEQLKSGTASVVCLLNNFYPREAKVQWKVDNALQSGNSQESVTEQDSKDSTYSLSSTLTLSKADYEKHKVYACEVTHQGLSSPVTKSFNRGEC
notes: Duobody, constant domain type H (IgG4): anti-FVII(a) arm mAb0872, anti-TLT-1 arm mAb1049; also called mAb0872 x mAb1049
Stimulation (fold): FXa generated by FVIIa with lipidated TLT-1 and 100 nM biAb, relative to free FVIIa [1]: 11.2 fold
Kd [2]: 320 nM
Kd [3]: 2.2 nM
